Source: patent US20060051395A1 (AFFINERGY, published 2006)
Ends that are not written are not given here.

Target: T1, Bone Morphogenic Protein 2 (BMP-2) (UniProt P12643 283-396)
T1 construct: Bought from Medtronic; In the phage ELISAs it was biotinylated with NHS-biotin (about one biotin per molecule) and held on streptavidin plates; In the peptide assays it was unlabelled
Assay: estimated affinity from solution-phase binding of biotinylated peptide and BMP-2, capture on streptavidin plate, anti-BMP antibody detection

T1 sequence (P12643 283-396 limits assumed): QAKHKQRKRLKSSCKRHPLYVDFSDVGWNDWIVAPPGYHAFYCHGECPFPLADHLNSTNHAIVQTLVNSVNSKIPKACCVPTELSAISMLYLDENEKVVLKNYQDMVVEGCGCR

Binder	Kd [nM]
SSSVDLYFPLKGDVVSR (not fully specified (residues 1, 2, 16, 17, C-terminus); also: C-terminal Lys(ε-biotin), linker before it not given here, Synthetic form of the peptide of clone AP02-59; not shown: C-terminal biotinylated lysine; any linker before it is not spelled out for this peptide) [AFF-2012]	9
SSFEPLRFPLKGVPVSR (not fully specified (residues 1, 2, 16, 17, C-terminus); also: C-terminal Lys(ε-biotin), linker before it not given here, Synthetic form of the peptide of clone AP02-60; not shown: C-terminal biotinylated lysine; any linker before it is not spelled out for this peptide) [AFF-2009]	10
